System: MS2 coat protein
Assay: apparent KD of MS2 coat protein; designed switch direction (-1 OFF switch, 1 ON switch): -1; higher = weaker reporter binding
Summary of the method: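 Normalised cluster fluorescence was curve-fitted, and each design's median over clusters is its apparent KD. Before this, SNAP-549-labelled MS2 coat protein was titrated from 0.7 or 1.5 nM, doubling to 3 µM, over RNA switches transcribed on Illumina chips by stalled E. coli RNA polymerase. Titrations had no input, 200 uM small-molecule ligand, or an oligonucleotide input, and steps lasted 0.8–1.5 h (lowest) to 10–20 min (highest).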

[1] = Eterna round: R95, input ligand: microRNA oligo, concentration not stated
[2] = input ligand: microRNA oligo, concentration not stated
[3] = Eterna round: R95, input ligand: FMN 200 uM
[4] = Eterna round: R95, input ligand: none

Sequence | apparent KD of MS2 coat protein [1] [nM] | apparent KD of MS2 coat protein (input ligand: FMN 200 uM) [nM] | apparent KD of MS2 coat protein (input ligand: none) [nM] | apparent KD of MS2 coat protein [2] [nM] | apparent KD of MS2 coat protein [3] [nM] | apparent KD of MS2 coat protein [4] [nM]
GUAGAGUAAGGAUAUGCAGAAUAGGAUAGAAUGGAUAGAAUGCAGAAGGUACAUGAGGAUCACCCAUGUAAUGU [Excluse me!!!! 1 - Jieux - Exclusion 4] (puzzle: Exclusion 4) | 19.3 |  |  |  |  | 
CGUGCGUAUGUGAGGAUAUGCUGGUCCUUGGAUCGGCAGAAGGCACAUGAGGAUCACCCAUGUGGUGUCGUUCC [salish99_Bmod_ex4_094] (puzzle: Brourd's mod of Exclusion 4) | 39 |  |  |  |  | 
AGAUGUCCGCAGGAUAUGCGGGCGAGGCCCUAAGCAGAAGGGCGGACAUGAGGAUCACCCAUGUGAGUAAAAGA [EX6 A.23] (Eterna round: R97, puzzle: Exclusion 6) |  | 94.2 | 25.2 |  |  | 
AGCCUAGCAGGAUAUGCCCGGGAUAACAUGAGGAUCACCCAUGUGACCGAUUGAUGUCUUGCAGAAGGGCUAGGGA [JL-EX5-4.02 ViennaUCT mod] (Eterna round: R97, puzzle: Exclusion 5) |  | 58.4 | 15.7 |  |  | 
CAUUAUUAUCGAGGAUAUCGUAUUGAGAUACUAUGAGAAGGCGGGAUAAACAUGAGGAUCACCCAUGUGAGCCGGAUGCUUGUG [Ex NG1 #36] (Eterna round: R96, puzzle: Exclusion NG 1) |  |  |  | 13.5 |  | 
UUUUAACAUGAGGAUCACCCAUGUGAGGAUAUCGUAAUUUAUAUUAAUAUUAAUAAAACGAGAAGGCACAUUUU [JMF 5] (puzzle: Exclusion 1) | 143 |  |  |  | 138 | 85.2
GAUAAGGUAGGAUAUACGAAUAAAUAGGGUAGUAAUAAUACACAUGAGGAUCACCCAUGUAGAAGGACCAAUAG [Mat - Exclusion 2 - Mod of my Tesla design - D41] (puzzle: Exclusion 2) | 19.4 |  |  |  | 37.4 | 21.4
AGGUCACAUGAGGAUCACCCAUGUCAGGAUAUCUACAUUGAAGCCUCGGCUUCAAUGUAGAGAAGGGAUAAUUA [E1/8-B2] (Eterna round: R97, puzzle: Exclusion 1) |  | 63.7 | 44.7 |  |  | 
UUUUAACAUGAGGAUCACCCAUGUGAGGAUAUCGAAAUUUAUAUUAAUAUUAAUAUAUCGAGAAGGCACAUUUU [JMF 24] (puzzle: Exclusion 1) | 74.9 |  |  |  |  | 
CAUGAUCUUCGGAUCAUGUACAUGAGGAUCACCCAUGUUACGAGUUGAUUUUCAUACAAGCUUUUUGCUCGUCUUAU [Sensor v3 - Turn-off variant 1 - 27] (puzzle: Sensor v3, turn-off variant 1) | 330 |  |  |  | 226 | 240
CAUAUUGUAGGAUAUAUUCGAAAGGUCCUCUUCCCAUACCGACAUGAGGAUCACCCAUGUAGAAGGAUAGUGCC [Eternabot (L2) Solution 13] (Eterna round: R97, puzzle: Exclusion 2) |  | 48.9 | 53.6 |  |  | 
UUGACGUCGUCAGGAUAUAGUUUUAAUGUCAUGCUUUUGUUUUUACAUGAGGAUCACCCAUGUCGCUAGAAGGGACUAAAGAUU [JR_ExcNG2_Sub012] (Eterna round: R96, puzzle: Exclusion NG 2) |  | 33.5 | 35 | 32.8 |  | 
GUCUCCAGAGGAUAUCUUUUACGCGACAUGAGGAUCACCCAUGUAGAGGAGAUUGUCAGGAGAGAAGGCUGGGACG [Eternabot (L1) Solution 56] (Eterna round: R97, puzzle: Exclusion 5) |  | 55.1 | 42.7 |  |  | 
GCCGAAAAUGUGAGGAUAUACCUAUGGAUACAUAGGUAGAAGGCACAUGAGGAUCACCCAUGUGUUUCAACGGC [Eli bmx4 4.21] (Eterna round: R97, puzzle: Brourd's mod of Exclusion 4) |  | 94.8 | 22.2 |  |  | 
GGGCCGCAAGUAAGGAUAUCCCUUAAAUUGUGAGCGGAGAAGGUACUUGAGGAUCACCCAAGUAUAGAAGAAAA [Arinbear] (Eterna round: R97, puzzle: Brourd's mod of Exclusion 4) |  | 54.2 | 15.2 |  |  | 
AGUACUAUCACGAAAGUGAUAGUACAAAAUAACAAGUGAACAUGAGGAUCACCCAUGUCCUCAUUUGCUCGUCUUAU [Sensor 3 - 18] (puzzle: Sensor v3, turn-off variant 2) | 925 |  |  |  | 418 | 421

Sequence | apparent KD of MS2 coat protein [1] [nM] | apparent KD of MS2 coat protein (input ligand: FMN 200 uM) [nM] | apparent KD of MS2 coat protein (input ligand: none) [nM] | apparent KD of MS2 coat protein [2] [nM] | apparent KD of MS2 coat protein [3] [nM] | apparent KD of MS2 coat protein [4] [nM]
GUGCAGCGAGGAUAUACAGACGGGUCCAGUACGUGUCUUGGACUUGAGGAUCACCCAAGUAGAAGGCGUCUCAG [salish99_ex2_r4_609] (Eterna round: R97, puzzle: Exclusion 2) |  | 35.4 | 36.8 |  |  | 
AAUACAAGCUAUUGAUCCCACAUGAGGAUCACCCAUGUAGCUGGCCGUGAGACCAGCUUUACGAUAGCUCGUCUUAU [Sensor-V1 #50] (Eterna round: R97, puzzle: Sensor, turn-off variant 1) |  | 261 | 263 |  |  | 
AAGCUGUGAGGAUAUACAUGAGGAUCACCCAUGUUAAGGAAGUCGGGAUUAAUUUGGUGUAGAAGGCGCUUAUU [JR_Ex3_Sub019] (Eterna round: R97, puzzle: Exclusion 3) |  | 46.1 | 48.6 |  |  | 
GAUAGAGAGCAGGAUAUCUUGGGUAAGUAUCAUAGAGAAGGGCUCACAUGAGGAUCACCCAUGUGGUCCAAGAU [Dibira] (puzzle: Exclusion 6) | 13 |  |  |  | 42.8 | 12.6
GUCAGCUCGUCAGGAUAUGCACAUGAGGAUCACCCAUGUAAGAUCAAGCUGCUUCGGCAGCAAGUGCAGAAGGGACGAGCUGAU [ENG2/9-B3] (Eterna round: R96, puzzle: Exclusion NG 2) |  | 156 | 294 | 214 |  | 
CCCACAAGCUUUUUGCUCGACAUGAGGAUCACCCAUGUAAAAUGGGUUAUAUAUAUAUGAAACAUAUAUAUAUACCU [-21.6, -47.5 kcal, A 35%] (Eterna round: R97, puzzle: Sensor, turn-off variant 1) |  | 43.9 | 47.6 |  |  | 
AGUAACCGUCACGAAAGUGAUGGUUACACAAGUAAAUGUACAUGAGGAUCACCCAUGUCCUCAUUUGCUCGUCUUAU [Sensor 3 - 46] (puzzle: Sensor v3, turn-off variant 2) | 373 |  |  |  | 152 | 230
CUAAAUCAUGUAGGAUAUGCGUGGCAAAGCUAUGCAGAAGGACAUGAGGAUCACCCAUGUGCUUCCGUCUGAGUACAGACGGUA [Mat - Exclusion NG 1 - Mod of JL - D22] (Eterna round: R96, puzzle: Exclusion NG 1) |  | 622 | 98.2 | 72.9 |  | 
CCUAGUUGGUAAGGAUAUCCUACAUUGUUCUGGCCCGGGCAUGCUACAUGAGGAUCACCCAUGUGGGAGAAGGUGCGUCAUCGC [Design 17] (Eterna round: R96, puzzle: Exclusion NG 2) |  | 80.4 | 71.7 | 53.3 |  | 
UAUUGCAAGUGAGGAUAUGACAUGAGGAUCACCCAUGUAAAGGGAGUUGGCUAUAUAGCAAGAUUUCAGAAGGCACUACUGUAU [JR_ExcNG2_Sub006] (Eterna round: R96, puzzle: Exclusion NG 2) |  | 133 | 56.3 | 32.6 |  | 
CCUUUGUCAGGAUAUCAGAACGCGCUCGUAGGGAGCGCGAAUGAGAAGGGACAUGAGGAUCACCCAUGUAAAGA [Soedes] (puzzle: Exclusion 4) | 74.3 |  |  |  |  | 
UUUAAAACAUAGGAUAUCGAAUAAAUCAUUUAACGAGAAGGAUGAACAUGAGGAUCACCCAUGUGGUAUCAUGG [Mat - Exclusion 6 - JL Mod - D20] (puzzle: Exclusion 6) | 183 |  |  |  | 219 | 207
AUUGUAUGGGAAGGAUAUAGAAUAUUAUUUUAACAUGAGGAUCACCCAUGUAACCUUAUGUGUAGCUAGAAGGUCCGUUUGUUA [Title] (Eterna round: R96, puzzle: Exclusion NG 2) |  |  |  | 269 |  | 
UAUAUAUAGUAAGGAUAUGUAUUAAUUUCAUAAACAGAAGGUACUGACAUGAGGAUCACCCAUGUUUUAGUGUGGGCAUGUAGA [JMF's solution 85] (Eterna round: R96, puzzle: Exclusion NG 1) |  | 88.2 | 81.2 | 54.2 |  | 
AUCAUGAUAGGAUAUACAUGAGGAUCACCCAUGUCCCACCCGUUACUUCUGGCCCUUUGUAGAAGGAUCGUCAA [Exy#21] (Eterna round: R97, puzzle: Exclusion 3) |  | 22.2 | 26.8 |  |  | 
